From patent CN115505045A (MABWELL SHANGHAI BIOSCIENCE CO LTD, dated 2022) come the findings set out here.

Assay [1] addresses T1, 鼠重组蛋白LAG-3(Cat:53069-M08H，北京义翘神州科技股份有限公司) (mouse, UniProt Q61790 24-442).
T1 construct: also called 小鼠LAG-3; 鼠LAG-3
T1 sequence (looked up): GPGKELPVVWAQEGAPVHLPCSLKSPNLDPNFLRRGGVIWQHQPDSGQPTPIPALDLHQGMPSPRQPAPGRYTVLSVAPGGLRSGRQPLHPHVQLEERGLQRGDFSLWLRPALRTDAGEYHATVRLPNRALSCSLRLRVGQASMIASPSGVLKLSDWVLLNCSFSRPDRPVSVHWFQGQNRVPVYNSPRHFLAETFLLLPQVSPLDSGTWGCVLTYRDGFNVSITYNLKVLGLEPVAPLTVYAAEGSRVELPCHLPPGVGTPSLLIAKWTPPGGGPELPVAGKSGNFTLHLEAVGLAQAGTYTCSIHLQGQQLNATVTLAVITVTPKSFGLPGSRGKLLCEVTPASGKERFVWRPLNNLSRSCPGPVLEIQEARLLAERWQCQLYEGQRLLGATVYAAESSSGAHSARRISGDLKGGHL
In words: ELISA, antigen coated at 1 μg/mL.

Assay [2] addresses T2, 鼠PD-L1(Cat:50010-M08H，北京义翘神州科技股份有限公司) (mouse, UniProt Q9EP73 19-238).
T2 construct: also called 小鼠PD-L1
The experiment in a line: ELISA, antigen coated at 1 μg/mL.

The target of the next assay is T3, 肿瘤细胞MBA-MD-231细胞表面的PD-L1 (UniProt Q9NZQ7 19-290, limits assumed).
T3 construct: whole, on cells; also called 细胞表面PD-L1
The experiment in a line: flow cytometry on MBA-MD-231 tumour cells. A general note: Flow cytometry measures light scatter and fluorescence of single cells or particles in a stream.

In assay [3] the target is T4, LAG-3(NCBI登录号:NP_002277.4)全长, HEK293细胞表面 (human, UniProt P18627 23-525).
T4 construct: whole, on cells; also called HEK293-LAG-3; 细胞表面LAG-3
T4 sequence (looked up): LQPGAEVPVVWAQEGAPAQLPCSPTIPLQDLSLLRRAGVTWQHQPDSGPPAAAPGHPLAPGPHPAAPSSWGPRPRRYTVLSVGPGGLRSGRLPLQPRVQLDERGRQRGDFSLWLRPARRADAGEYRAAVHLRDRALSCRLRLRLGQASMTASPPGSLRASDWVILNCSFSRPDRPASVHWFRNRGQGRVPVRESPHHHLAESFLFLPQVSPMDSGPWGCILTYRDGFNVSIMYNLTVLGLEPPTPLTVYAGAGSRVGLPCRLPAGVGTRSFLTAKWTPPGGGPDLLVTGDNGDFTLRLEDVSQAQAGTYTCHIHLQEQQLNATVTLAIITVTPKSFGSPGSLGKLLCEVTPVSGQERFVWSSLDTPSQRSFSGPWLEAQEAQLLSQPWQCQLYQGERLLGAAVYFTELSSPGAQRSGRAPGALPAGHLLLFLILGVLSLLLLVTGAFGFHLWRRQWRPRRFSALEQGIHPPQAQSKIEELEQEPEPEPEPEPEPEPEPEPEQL
In words: flow cytometry on HEK293 cells transfected with full-length LAG-3.

Assay [4] deals with T5, 人LAG-3胞外区融合蛋白(义翘神州，Cat:16498-H08H) (human, UniProt P18627 23-450).
T5 construct: extracellular domain; also called 人重组蛋白LAG-3; 人LAG-3重组蛋白
T5 sequence (looked up): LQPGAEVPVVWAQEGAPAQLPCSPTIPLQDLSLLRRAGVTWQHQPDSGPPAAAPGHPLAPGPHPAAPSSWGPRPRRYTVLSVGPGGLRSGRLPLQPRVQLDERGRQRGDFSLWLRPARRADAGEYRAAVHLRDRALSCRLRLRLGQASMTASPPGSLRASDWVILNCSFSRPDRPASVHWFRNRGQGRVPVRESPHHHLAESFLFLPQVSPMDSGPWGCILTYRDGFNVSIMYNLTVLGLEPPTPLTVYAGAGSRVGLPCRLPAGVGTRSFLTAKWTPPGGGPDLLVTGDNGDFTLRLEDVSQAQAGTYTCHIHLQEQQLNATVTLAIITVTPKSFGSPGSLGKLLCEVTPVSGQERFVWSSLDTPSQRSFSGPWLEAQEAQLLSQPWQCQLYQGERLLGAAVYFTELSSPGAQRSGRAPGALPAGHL
In words: SPR (Reichert 4SPR), antibody captured by anti-human Fc, antigen in flow.

The target of assay [5] is T6, 人PD-L1 on CHO-PD-L1-CD3L细胞 (human, UniProt Q9NZQ7 19-290).
T6 construct: whole, on cells; also called 高表达人PD-L1的CHO细胞
In words: flow cytometry, double-positive cells (CFSE-labelled CHO-PD-L1-CD3L with HEK-293-LAG3-OFP).

For assay [6], the target named is T7, LAG-3-OFP(NCBI登录号:NP_002277.4) on HEK293细胞 (human, UniProt P18627 23-525).
T7 construct: whole, on cells; also called HEK-293-LAG3-OFP; HEK293-LAG-3
T7 sequence (looked up): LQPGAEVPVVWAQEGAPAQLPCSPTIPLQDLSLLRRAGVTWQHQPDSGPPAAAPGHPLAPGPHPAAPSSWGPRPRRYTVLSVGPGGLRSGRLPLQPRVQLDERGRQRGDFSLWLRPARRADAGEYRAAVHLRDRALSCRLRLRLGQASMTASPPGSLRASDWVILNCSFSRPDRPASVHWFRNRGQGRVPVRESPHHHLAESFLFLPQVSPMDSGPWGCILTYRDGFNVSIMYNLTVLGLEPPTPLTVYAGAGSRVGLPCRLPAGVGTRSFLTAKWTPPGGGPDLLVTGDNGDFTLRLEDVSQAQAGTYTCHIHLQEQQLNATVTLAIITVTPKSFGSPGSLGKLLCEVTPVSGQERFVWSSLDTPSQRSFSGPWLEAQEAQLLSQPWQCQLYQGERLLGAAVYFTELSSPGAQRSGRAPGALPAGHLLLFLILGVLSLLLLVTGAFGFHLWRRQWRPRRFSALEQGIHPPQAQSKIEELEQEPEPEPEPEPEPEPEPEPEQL
The assay is described as above.

T2 sequence (Q9EP73 19-238 limits assumed, stated change not applied): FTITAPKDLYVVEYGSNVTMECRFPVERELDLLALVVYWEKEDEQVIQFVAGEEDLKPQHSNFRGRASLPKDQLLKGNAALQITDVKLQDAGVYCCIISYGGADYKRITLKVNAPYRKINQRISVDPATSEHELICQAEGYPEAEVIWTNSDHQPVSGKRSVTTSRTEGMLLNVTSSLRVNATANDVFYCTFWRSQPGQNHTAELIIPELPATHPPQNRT
T3 sequence (Q9NZQ7 19-290 limits assumed): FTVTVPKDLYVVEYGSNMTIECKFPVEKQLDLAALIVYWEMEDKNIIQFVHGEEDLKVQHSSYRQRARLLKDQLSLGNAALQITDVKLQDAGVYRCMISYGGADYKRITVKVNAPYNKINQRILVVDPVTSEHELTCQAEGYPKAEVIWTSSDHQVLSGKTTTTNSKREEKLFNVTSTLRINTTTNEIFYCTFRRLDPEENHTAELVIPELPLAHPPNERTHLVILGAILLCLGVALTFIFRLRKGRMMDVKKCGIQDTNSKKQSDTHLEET
T6 sequence (Q9NZQ7 19-290): as the sequence (Q9NZQ7 19-290 limits assumed) above

B1: 对照抗体BMS-986016 (antibody, human IgG4 S228P, kappa, V domains shown)
VH: QVQLQQWGAGLLKPSETLSLTCAVYGGSFSDYYWNWIRQPPGKGLEWIGEINHRGSTNSNPSLKSRVTLSLDTSKNQFSLKLRSVTAADTAVYYCAFGYSDYEYNWFDPWGQGTLVTVSS
VL: EIVLTQSPATLSLSPGERATLSCRASQSISSYLAWYQQKPGQAPRLLIYDASNRATGIPARFSGSGSGTDFTLTISSLEPEDFAVYYCQQRSNWPLTFGQGTNLEIKR
For the molecule B1, the binding result in assay [1] was “no binding (tested: 1μg/mL)”.

B2: hz7F10-hzB6 (bispecific antibody, human IgG1, kappa, L234A L235A)
heavy: not shown
light: DIQMTQSPSSLSASVGDRVTITCKASENVGTYVSWFQQKPGKAPKLLIYGASNRYTGVPSRFSGSGSGTDFTLTISSLQPEDFATYYCGQSYSYPYTFGQGTKLEIKRTVAAPSVFIFPPSDEQLKSGTASVVCLLNNFYPREAKVQWKVDNALQSGNSQESVTEQDSKDSTYSLSSTLTLSKADYEKHKVYACEVTHQGLSSPVTKSFNRGEC
notes: Expressed transiently in HEK293 cells; also called 抗人LAG-3/PD-L1双特异抗体; LAG-3/PD-L1双特异抗体
As to B2, the binding result in assay [1] was “no binding (tested: 1μg/mL)”; in assay [2], “no binding (tested: 1μg/mL)”; with 肿瘤细胞MBA-MD-231细胞表面的PD-L1 it was “binds”; in assay [3], “binds”; in assay [4], “binds”; in assay [5], “binds”. For the same molecule, the binding result in assay [6] is given as “binds”.

B3: hz7F10-hzF2 (bispecific antibody, human IgG1, kappa, L234A L235A)
heavy: not shown
light: DIQMTQSPSSLSASVGDRVTITCKASENVGTYVSWFQQKPGKAPKLLIYGASNRYTGVPSRFSGSGSGTDFTLTISSLQPEDFATYYCGQSYSYPYTFGQGTKLEIKRTVAAPSVFIFPPSDEQLKSGTASVVCLLNNFYPREAKVQWKVDNALQSGNSQESVTEQDSKDSTYSLSSTLTLSKADYEKHKVYACEVTHQGLSSPVTKSFNRGEC
notes: as for B2
B3: the binding result in assay [1] is given as “no binding (tested: 1μg/mL)”; in assay [2], “no binding (tested: 1μg/mL)”; with 肿瘤细胞MBA-MD-231细胞表面的PD-L1 it was “binds”; in assay [3], “binds”; in assay [4], “binds”.

B4: 人源化抗体hz7F10 (antibody, human IgG1, kappa, L234A L235A, V domains shown)
VH: EVQLVQSGAEVKKPGASVKVSCKASGVNIKDDYMHWVRQAPGQGLEWIGRIDPEDVETKYDPKFQGRVTITADTSTSTAYMELSSLRSEDTAVYYCARSFYSNYVNYFDQWGQGTLVTVSS
VL: DIQMTQSPSSLSASVGDRVTITCKASENVGTYVSWFQQKPGKAPKLLIYGASNRYTGVPSRFSGSGSGTDFTLTISSLQPEDFATYYCGQSYSYPYTFGQGTKLEIKR
notes: Humanised from mouse antibody 7F10; also called 裸抗体hz7F10; 抗LAG-3抗体hz7F10
Consider B4, for which the binding result in assay [3] and in assay [4] was “binds” throughout.
